In article PMC12325699, “Utilizing native nanodiscs to isolate active TRPC3 channels and expand structural analysis capabilities” (Scientific Reports, 2025):

Target: the molecule itself
Assay: negative-stain electron microscopy; purified TRPC3 at 0.1 mg/mL, extracted from Expi293F membranes with DDM or with DDDG, on a TEM grid, stained with 1% uranyl acetate

B1: canonical transient receptor potential channel 3 (TRPC3), TRPC3-YFP-3xFLAG construct (natural protein, human, UniProt Q13507-3 1-848, looked up)
chain: MEGSPSLRRMTVMREKGRRQAVRGPAFMFNDRGTSLTAEEERFLDAAEYGNIPVVRKMLEESKTLNVNCVDYMGQNALQLAVGNEHLEVTELLLKKENLARIGDALLLAISKGYVRIVEAILNHPGFAASKRLTLSPCEQELQDDDFYAYDEDGTRFSPDITPIILAAHCQKYEVVHMLLMKGARIERPHDYFCKCGDCMEKQRHDSFSHSRSRINAYKGLASPAYLSLSSEDPVLTALELSNELAKLANIEKEFKNDYRKLSMQCKDFVVGVLDLCRDSEEVEAILNGDLESAEPLEVHRHKASLSRVKLAIKYEVKKFVAHPNCQQQLLTIWYENLSGLREQTIAIKCLVVLVVALGLPFLAIGYWIAPCSRLGKILRSPFMKFVAHAASFIIFLGLLVFNASDRFEGITTLPNITVTDYPKQIFRVKTTQFTWTEMLIMVWVLGMMWSECKELWLEGPREYILQLWNVLDFGMLSIFIAAFTARFLAFLQATKAQQYVDSYVQESDLSEVTLPPEIQYFTYARDKWLPSDPQIISEGLYAIAVVLSFSRIAYILPANESFGPLQISLGRTVKDIFKFMVLFIMVFFAFMIGMFILYSYYLGAKVNAAFTTVEESFKTLFWSIFGLSEVTSVVLKYDHKFIENIGYVLYGIYNVTMVVVLLNMLIAMINSSYQEIEDDSDVEWKFARSKLWLSYFDDGKTLPPPFSLVPSPKSFVYFIMRIVNFPKCRRRRLQKDIEMGMGNSKSRLNLFTQSNSRVFESHSFNSILNQPTRYQQIMKRLIKRYVLKAQVDKENDEVNEGELKEIKQDISSLRYELLEDKSQATEELAILIHKLSEKLNPSMLRCE
notes: a TEV site stands between the tags and TRPC3 by the plasmid's name; The protein was purified by its FLAG tag; no TEV cleavage step is described, so the tags were probably still on the protein in the electron microscopy; also called TRPC3–3 x FLAG–YFP; 3xFLAG-YFP; source: Expi293F, transiently transfected; membranes extracted with DDM or DDDG
stoichiometry N: 4
